From patent US20260176659A1, “IMPROVED METHOD FOR THE PRODUCTION OF NATURAL VANILLIN” (BASE SE, priority 2022, published 2026)

Assay: Bioconversion of eugenol to vanillin: one-pot concurrent cascade EUGO + alkene cleavage oxygenase (5 mM scale)
Type: biochemical
Details: for Reaction composition at 24 hours (%) 1a / Reaction composition at 24 hours (%) 2a / Reaction composition at 24 hours (%) 3a / Reaction composition at 24 hours (%) 5a / Conversion of 1a to 3a (%): 5 mM 1a; for Conversion of 1a to 3a (%): 24 h; for Reaction composition after 24 hours 1a (%) / Reaction composition after 24 hours 2a (%) / Reaction composition after 24 hours 3a (%) / Reaction composition after 24 hours 5a (%): Table 8a, CO-XX FD-CFE 1 mg/mL; for Reaction composition after 24 hours 1a (%) / Reaction composition after 24 hours 2a (%) / Reaction composition after 24 hours 3a (%) / Reaction composition after 24 hours 5a (%) / Product distribution after 24 hours 2a (%) / Product distribution after 24 hours 3a (%) / Product distribution after 24 hours 5a (%): eugenol 5 mM; for Product distribution after 24 hours 2a (%) / Product distribution after 24 hours 3a (%) / Product distribution after 24 hours 5a (%): Table 8b, CO-0X FD-CFE 1 mg/mL
Procedure, shortened: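 Cell-free extracts of EUGO (0.5 mg) and cleavage oxygenase (3 mg) were combined with catalase, 1 mM FeSO4 and 1 mM ascorbate in glycine-NaOH pH 9.0 (or Tris-HCl pH 8.0). The cascade ran with 5 mM eugenol (5% ethanol/DMSO cosolvent) at 30° C and 120 rpm overnight. Methanol-quenched samples were analysed by HPLC at 280/340 nm.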

[1] = EUGO 0 mg/mL, IECO fresh CFE 4 mg/mL, cosolvent DMSO 5% v/v
[2] = EUGO 0 mg/mL, IECO fresh CFE 4 mg/mL, cosolvent EtOH 5% v/v
[3] = EUGO FD-CFE 1 mg/mL (row prints 2, see doubts), IECO FD-CFE 4 mg/mL, pH 9.0, catalase 10 mg/mL
[4] = EUGO FD-CFE 1 mg/mL, IECO FD-CFE 4 mg/mL, pH 8.0, catalase 10 mg/mL
[5] = EUGO FD-CFE 1 mg/mL, IECO FD-CFE 6 mg/mL, pH 8.0, catalase 10 mg/mL
[6] = EUGO FD-CFE 1 mg/mL, IECO FD-CFE 6 mg/mL, pH 9.0, catalase 10 mg/mL
[7] = EUGO FD-CFE 2 mg/mL, IECO FD-CFE 4 mg/mL, pH 8.0, catalase 10 mg/mL
[8] = EUGO FD-CFE 2 mg/mL, IECO FD-CFE 4 mg/mL, pH 9.0, catalase 10 mg/mL
[9] = EUGO FD-CFE 2 mg/mL, IECO FD-CFE 6 mg/mL, pH 8.0, catalase 10 mg/mL
[10] = EUGO FD-CFE 2 mg/mL, IECO FD-CFE 6 mg/mL, pH 9.0, catalase 10 mg/mL
[11] = EUGO FD-CFE 5 mg/mL, IECO FD-CFE 20 mg/mL, pH 8.0, catalase 10 mg/mL
[12] = EUGO FD-CFE 5 mg/mL, IECO FD-CFE 20 mg/mL, pH 9.0, catalase 10 mg/mL
[13] = EUGO fresh CFE 1 mg/mL, IECO fresh CFE 4 mg/mL, cosolvent DMSO 5% v/v
[14] = EUGO fresh CFE 1 mg/mL, IECO fresh CFE 4 mg/mL, cosolvent EtOH 5% v/v
[15] = EUGO FD-CFE 1 mg/mL, catalase 10 mg/mL, pH 8.0
[16] = EUGO FD-CFE 1 mg/mL, catalase 10 mg/mL, pH 9.0
[17] = replicates of concurrent cascade with EUGO, pH 8.0, SD of four experiments
[18] = replicates of concurrent cascade with EUGO, pH 9.0, SD of four experiments

B1: IECO: isoeugenol cleavage oxygenase from Pseudomonas nitroreducens (GenBank: ACP17973), SEQ ID NO: 24 (protein, listed as Pseudomonas nitroreducens)
chain: MARLNRNDPQLVGTLLPTRIEADLFDLEVDGEIPKSINGTFYRNTPEPQVTPQKFHTFIDGDGMASAFHFEDGHVDFISRWVKTARFTAERLARKSLFGMYRNPYTDDTSVKGLDRTVANTSIISHHGKVLAVKEDGLPYELDPRTLETRGRFDYDGQVTSQTHTAHPKYDPETGDLLFFGSAAKGEATPDMAYYIVDKHGKVTHETWFEQPYGAFMHDFAITRNWSIFPIMPATNSLSRLKAKQPIYMWEPELGSYIGVLPRRGQGSQIRWLKAPALWVFHVVNAWEVGTKIYIDLMESEILPFPFPNSQNQPFAPEKAVPRLTRWEIDLDSSSDEIKRTRLHDFFAEMPIMDFRFALQCNRYGFMGVDDPRKPLAHQQAEKIFAYNSLGIWDNHRGDYDLWYSGEASAAQEPAFVPRSPTAAEGDGYLLTVVGRLDENRSDLVILDTQDIQSGPVATIKLPFRLRAALHGCWVPRP
- Reaction composition at 24 hours (%) 1a [1]: 97%
- Reaction composition at 24 hours (%) 2a [1]: 2≤ %
- Reaction composition at 24 hours (%) 3a [1]: 1≤ %
- Reaction composition at 24 hours (%) 5a [1]: 1≤ %
- Conversion of 1a to 3a (%) [1]: 1≤ %
- Reaction composition at 24 hours (%) 1a [2]: 97%
- Reaction composition at 24 hours (%) 2a [2]: 2≤ %
- Reaction composition at 24 hours (%) 3a [2]: 1≤ %
- Reaction composition at 24 hours (%) 5a [2]: 1≤ %
- Conversion of 1a to 3a (%) [2]: 1≤ %
- Reaction composition at 24 hours (%) 1a [3]: 2%
- Reaction composition at 24 hours (%) 2a [3]: 3%
- Reaction composition at 24 hours (%) 3a [3]: 53%
- Reaction composition at 24 hours (%) 5a [3]: 1≤ %
- Conversion of 1a to 3a (%) [3]: 45%
- Reaction composition at 24 hours (%) 1a [4]: 1%
- Reaction composition at 24 hours (%) 2a [4]: 5%
- Reaction composition at 24 hours (%) 3a [4]: 45%
- Reaction composition at 24 hours (%) 5a [4]: 1≤ %
- Conversion of 1a to 3a (%) [4]: 40%
- Reaction composition at 24 hours (%) 1a [5]: 2%
- Reaction composition at 24 hours (%) 2a [5]: 4%
- Reaction composition at 24 hours (%) 3a [5]: 49%
- Reaction composition at 24 hours (%) 5a [5]: 1%
- Conversion of 1a to 3a (%) [5]: 44%
- Reaction composition at 24 hours (%) 1a [6]: 3%
- Reaction composition at 24 hours (%) 2a [6]: 3%
- Reaction composition at 24 hours (%) 3a [6]: 59%
- Reaction composition at 24 hours (%) 5a [6]: 1%
- Conversion of 1a to 3a (%) [6]: 50%
- Reaction composition at 24 hours (%) 1a [7]: 2%
- Reaction composition at 24 hours (%) 2a [7]: 4%
- Reaction composition at 24 hours (%) 3a [7]: 48%
- Reaction composition at 24 hours (%) 5a [7]: 2%
- Conversion of 1a to 3a (%) [7]: 40%
- Reaction composition at 24 hours (%) 1a [8]: 1%
- Reaction composition at 24 hours (%) 2a [8]: 4%
- Reaction composition at 24 hours (%) 3a [8]: 52%
- Reaction composition at 24 hours (%) 5a [8]: 2%
- Conversion of 1a to 3a (%) [8]: 44%
- Reaction composition at 24 hours (%) 1a [9]: 3%
- Reaction composition at 24 hours (%) 2a [9]: 5%
- Reaction composition at 24 hours (%) 3a [9]: 44%
- Reaction composition at 24 hours (%) 5a [9]: 3%
- Conversion of 1a to 3a (%) [9]: 41%
- Reaction composition at 24 hours (%) 1a [10]: 3%
- Reaction composition at 24 hours (%) 2a [10]: 4%
- Reaction composition at 24 hours (%) 3a [10]: 50%
- Reaction composition at 24 hours (%) 5a [10]: 2%
- Conversion of 1a to 3a (%) [10]: 49%
- Reaction composition at 24 hours (%) 1a [11]: 1≤ %
- Reaction composition at 24 hours (%) 2a [11]: 27%
- Reaction composition at 24 hours (%) 3a [11]: 9%
- Reaction composition at 24 hours (%) 5a [11]: 6%
- Conversion of 1a to 3a (%) [11]: 8%
- Reaction composition at 24 hours (%) 1a [12]: 1≤ %
- Reaction composition at 24 hours (%) 2a [12]: 18%
- Reaction composition at 24 hours (%) 3a [12]: 15%
- Reaction composition at 24 hours (%) 5a [12]: 5%
- Conversion of 1a to 3a (%) [12]: 13%
- Reaction composition at 24 hours (%) 1a [13]: 3%
- Reaction composition at 24 hours (%) 2a [13]: 49%
- Reaction composition at 24 hours (%) 3a [13]: 44 ^ %
- Reaction composition at 24 hours (%) 5a [13]: 4%
- Conversion of 1a to 3a (%) [13]: 42 ^ %
- Reaction composition at 24 hours (%) 1a [14]: 4%
- Reaction composition at 24 hours (%) 2a [14]: 5%
- Reaction composition at 24 hours (%) 3a [14]: 86 ^ %
- Reaction composition at 24 hours (%) 5a [14]: 5%
- Conversion of 1a to 3a (%) [14]: 48 ^ %
- Reaction composition after 24 hours 1a (%) [15]: 51%
- Reaction composition after 24 hours 2a (%) [15]: 52%
- Reaction composition after 24 hours 3a (%) [15]: 36%
- Reaction composition after 24 hours 5a (%) [15]: 12%
- Reaction composition after 24 hours 1a (%) [16]: ≤1%
- Reaction composition after 24 hours 2a (%) [16]: 24%
- Reaction composition after 24 hours 3a (%) [16]: 59%
- Reaction composition after 24 hours 5a (%) [16]: 18%
- Product distribution after 24 hours 2a (%) [15]: 67.8%
- Product distribution after 24 hours 3a (%) [15]: 17.6%
- Product distribution after 24 hours 5a (%) [15]: 14.6%
- Product distribution after 24 hours 2a (%) [16]: 49.4%
- Product distribution after 24 hours 3a (%) [16]: 30.7%
- Product distribution after 24 hours 5a (%) [16]: 19.9%
- Conversion of 1a to 3a (%) [17]: 31 ± 2%
- Reaction composition at 24 hours (%) 1a [17]: 1≤ %
- Reaction composition at 24 hours (%) 2a [17]: 51 ± 2%
- Reaction composition at 24 hours (%) 3a [17]: 34 ± 2%
- Reaction composition at 24 hours (%) 5a [17]: 15 ± 3%
- Conversion of 1a to 3a (%) [18]: 52 ± 3%
- Reaction composition at 24 hours (%) 1a [18]: 1≤ %
- Reaction composition at 24 hours (%) 2a [18]: 22 ± 2%
- Reaction composition at 24 hours (%) 3a [18]: 59 ± 1%
- Reaction composition at 24 hours (%) 5a [18]: 18 ± 1%
- overall conversion of 1a to vanillin 3a in the 2-step cascade (with EUGO, 5 mM substrate concentration): 50%
